Reference: patent publication US20250320281A1

How the values were obtained:
[1] = target: HIV-1 Env of isolate Du172 (clade C pseudovirus) (HIV-1); test: cell-based or functional assay
[2] = target: HIV-1 Env of isolate ZM214 (clade C pseudovirus) (HIV-1); test: cell-based or functional assay
[3] = target: Endo H treated JR-FL gp120 (HIV-1); test: ELISA, antigen-coated wells
[4] = target: HIV-1 92TH021 Env (HIV-1); test: cell-based or functional assay
[5] = target: HIV-1 92UG024 Env (HIV-1); test: cell-based or functional assay
[6] = target: HIV-1 MGRM-D-001 Env (pseudovirus) (HIV-1 isolate MGRM-D-001 (clade D)); test: cell-based or functional assay
[7] = target: aMLV envelope (control pseudovirus) (aMLV); test: cell-based or functional assay
[8] = target: HIV-1 Env of isolate APV13 (HIV-1); test: cell-based or functional assay
[9] = target: HIV-1 Env of isolate MG RM-D-001 (clade D), on pseudovirus (HIV-1); test: cell-based or functional assay
[10] = target: HIV-1 Env of isolate MG RM-D-021 (clade D), on pseudovirus (HIV-1); test: cell-based or functional assay
[11] = target: HIV-1 Env of isolate MGRM-Chronic-B-003 (HIV-1); test: cell-based or functional assay
[12] = target: HIV-1 Env of isolate MGRM-F1-014 (clade F), on pseudovirus (HIV-1); test: cell-based or functional assay
[13] = target: HIV-1 Env of isolate MG RM-D-029 (HIV-1); test: cell-based or functional assay
[14] = target: HIV-1 Env of isolate MGRM-F1-004 (HIV-1); test: cell-based or functional assay
[15] = target: HIV-1 Env of isolate MGRM-F1-006 (HIV-1); test: cell-based or functional assay
[16] = target: HIV-1 Env of isolate MGRM-F1-012 (HIV-1); test: cell-based or functional assay
[17] = target: HIV-1 Env of pseudovirus MGRM-AE-008 (subtype AE) (HIV-1); test: cell-based or functional assay
[18] = target: HIV-1 Env of pseudovirus MGRM-AG-011 (subtype AG) (HIV-1); test: cell-based or functional assay

Sequence of 1443_C16 (PG16) (TCN-116) (antibody) (VH): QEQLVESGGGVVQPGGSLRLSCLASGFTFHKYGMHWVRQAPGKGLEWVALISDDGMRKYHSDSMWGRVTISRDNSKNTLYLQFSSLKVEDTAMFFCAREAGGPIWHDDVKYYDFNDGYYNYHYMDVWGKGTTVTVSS
Sequence of 1443_C16 (PG16) (TCN-116) (antibody) (VL): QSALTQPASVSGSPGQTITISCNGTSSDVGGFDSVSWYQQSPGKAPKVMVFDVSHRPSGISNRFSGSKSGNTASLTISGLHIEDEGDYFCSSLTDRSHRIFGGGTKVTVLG

What does the source list for 1443_C16 (PG16) (TCN-116) (antibody)?
IC50 (neutralization, TZM-bl pseudovirus assay) [1]: < 0.01 µg/mL; IC50 (neutralization, TZM-bl pseudovirus assay) [2]: > 25 µg/mL

How did the EC50 [3] turn out when 4838_L06 (PGT-121) (antibody) was run?
Its EC50 is > 10 µg/mL.

For 4877_D15 (PGT-122) (antibody), which Neutralization by PGT-122, IC50 [4] is on record?
Its Neutralization by PGT-122, IC50 is > 10 µg/mL.

And the Neutralization by PGT-122, IC80 [4]?
Its Neutralization by PGT-122, IC80 is > 10 µg/mL.

What about the Neutralization by PGT-122, IC90 [4] of the same substance?
Its Neutralization by PGT-122, IC90 is > 10 µg/mL.

What about the Neutralization by PGT-122, IC95 [4] of the same substance?
Its Neutralization by PGT-122, IC95 is > 10 µg/mL.

And the Neutralization by PGT-122, IC50 [5]?
Its Neutralization by PGT-122, IC50 is > 10 µg/mL.

And the Neutralization by PGT-122, IC80 [5]?
The Neutralization by PGT-122, IC80 was > 10 µg/mL.

And the Neutralization by PGT-122, IC90 [5]?
The Neutralization by PGT-122, IC90 was > 10 µg/mL.

And the Neutralization by PGT-122, IC95 [5]?
Its Neutralization by PGT-122, IC95 is > 10 µg/mL.

What does the source list for 5123_A06 (PGT-125) (antibody)?
Neutralization by PGT-125, IC50 [6]: 2.31 µg/mL; Neutralization by PGT-125, IC80 [6]: > 10 µg/mL; Neutralization by PGT-125, IC90 [6]: > 10 µg/mL; Neutralization by PGT-125, IC95 [6]: > 10 µg/mL; Neutralization by PGT-125, IC50 [7]: > 10 µg/mL; Neutralization by PGT-125, IC80 [7]: > 10 µg/mL; Neutralization by PGT-125, IC90 [7]: > 10 µg/mL; Neutralization by PGT-125, IC95 [7]: > 10 µg/mL

Which IC50 (µg/mL), pseudovirus neutralization [8] does the source give for PGV04 (antibody) here?
The IC50 (µg/mL), pseudovirus neutralization was 1.23 µg/mL.

And the IC50 (µg/mL), pseudovirus neutralization [9]?
The IC50 (µg/mL), pseudovirus neutralization was > 50 µg/mL.

What about the IC50 (µg/mL), pseudovirus neutralization [10] of the same substance?
Its IC50 (µg/mL), pseudovirus neutralization is > 50 µg/mL.

What about the IC50 (µg/mL), pseudovirus neutralization [11] of the same substance?
The IC50 (µg/mL), pseudovirus neutralization was 0.258 µg/mL.

What about the IC50 (µg/mL), pseudovirus neutralization [12] of the same substance?
Its IC50 (µg/mL), pseudovirus neutralization is 0.02 µg/mL.

How did the IC50 [13] turn out when VRC01 (antibody) was run?
The IC50 was 3.22 µg/mL.

What about the IC50 [14] of the same substance?
The IC50 was 0.305 µg/mL.

And the IC50 [15]?
Its IC50 is 2.86 µg/mL.

What about the IC50 [16] of the same substance?
Its IC50 is 0.488 µg/mL.

What about the IC50, pseudovirus neutralization [17] of the same substance?
The IC50, pseudovirus neutralization was 1.72 µg/mL.

And the IC50, pseudovirus neutralization [18]?
The IC50, pseudovirus neutralization was 0.084 µg/mL.
